Values quoted from earlier work, collected in paper PMC3433420.
Read-outs that look alike come from different tables or passages of the source.

Tests used:
Conditions in all cases: cited from earlier work
[1] = biological target: DAPP1 (Homo sapiens) (UniProt Q9UN19)
[2] = biological target: SHC2-PTB (Homo sapiens) (UniProt P98077)
[3] = biological target: PIK3R1-C (Homo sapiens) (UniProt P27986)
[4] = biological target: SHC3 (Homo sapiens) (UniProt Q92529)
[5] = biological target: PLCG1-C (Homo sapiens) (UniProt P19174)
[6] = biological target: SLA (Homo sapiens) (UniProt Q13239)
[7] = biological target: PIK3R1-C (Homo sapiens) (UniProt P27986); remark: listed apart in the source
[8] = biological target: PIK3R3-N (Homo sapiens) (UniProt Q92569)
[9] = biological target: SH2D3A (Homo sapiens) (UniProt Q9BRG2)
[10] = biological target: PIK3R1-N (Homo sapiens) (UniProt P27986)
[11] = biological target: PIK3R3-C (Homo sapiens) (UniProt Q92569)
[12] = biological target: GRB7 (Homo sapiens) (UniProt Q14451)
[13] = biological target: SHC3 (Homo sapiens) (UniProt Q92529); remark: listed apart in the source
[14] = biological target: PIK3R2-NC (Homo sapiens) (UniProt O00459)
[15] = biological target: PIK3R2-N (Homo sapiens) (UniProt O00459)
[16] = biological target: PLCG1-C (Homo sapiens) (UniProt P19174); remark: listed apart in the source
[17] = biological target: VAV1 (Homo sapiens) (UniProt P15498)
[18] = biological target: SYK-NC (Homo sapiens) (UniProt P43405)
[19] = biological target: SH2D1B (Homo sapiens) (UniProt O14796)
[20] = biological target: VAV3 (Homo sapiens) (UniProt Q9UKW4)
[21] = biological target: RASA1-C (Homo sapiens) (UniProt P20936)
[22] = biological target: BMX (Homo sapiens) (UniProt P51813)
[23] = biological target: PIK3R3-C (Homo sapiens) (UniProt Q92569); remark: listed apart in the source
[24] = biological target: PIK3R1-NC (Homo sapiens) (UniProt P27986)
[25] = biological target: SHF (Homo sapiens) (UniProt Q7M4L6)
[26] = biological target: SH2D1A (Homo sapiens) (UniProt O60880)
[27] = biological target: SUPT6H (Homo sapiens) (UniProt Q7KZ85)
[28] = biological target: SHD (Homo sapiens) (UniProt Q96IW2)
[29] = biological target: SHC1-PTB (Homo sapiens) (UniProt P29353)
[30] = biological target: BTK (Homo sapiens) (UniProt Q06187)
Sequence of BTK (Homo sapiens) (Q06187 276-382): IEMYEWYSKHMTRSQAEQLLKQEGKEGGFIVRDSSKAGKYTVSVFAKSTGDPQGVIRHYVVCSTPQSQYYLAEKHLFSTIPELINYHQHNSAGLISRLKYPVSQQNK

Sequence of SHC3 (Homo sapiens) (Q92529 494-594): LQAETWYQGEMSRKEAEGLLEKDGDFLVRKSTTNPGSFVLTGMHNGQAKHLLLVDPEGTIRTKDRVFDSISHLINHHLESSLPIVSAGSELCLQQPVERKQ
Sequence of PLCG1-C (Homo sapiens) (P19174 545-761): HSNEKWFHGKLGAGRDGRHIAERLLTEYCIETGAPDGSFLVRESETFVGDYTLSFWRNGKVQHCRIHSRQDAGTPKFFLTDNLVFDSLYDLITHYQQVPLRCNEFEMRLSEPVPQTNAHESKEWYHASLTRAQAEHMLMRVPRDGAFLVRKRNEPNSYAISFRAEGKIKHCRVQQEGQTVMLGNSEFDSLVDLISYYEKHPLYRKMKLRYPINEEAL
Sequence of PIK3R1-C (Homo sapiens) (P27986 328-723): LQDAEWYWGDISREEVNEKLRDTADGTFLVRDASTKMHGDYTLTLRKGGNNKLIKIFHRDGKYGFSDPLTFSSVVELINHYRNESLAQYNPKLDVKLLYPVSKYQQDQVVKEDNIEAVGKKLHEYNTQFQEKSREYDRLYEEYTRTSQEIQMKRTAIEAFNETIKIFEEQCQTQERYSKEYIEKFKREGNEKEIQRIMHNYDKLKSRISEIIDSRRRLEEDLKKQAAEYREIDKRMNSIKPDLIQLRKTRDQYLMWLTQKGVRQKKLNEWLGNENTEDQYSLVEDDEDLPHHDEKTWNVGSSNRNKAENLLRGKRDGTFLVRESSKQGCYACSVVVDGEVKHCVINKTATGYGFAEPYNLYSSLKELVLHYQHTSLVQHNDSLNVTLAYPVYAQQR
Sequence of VAV3 (Homo sapiens) (Q9UKW4 667-771): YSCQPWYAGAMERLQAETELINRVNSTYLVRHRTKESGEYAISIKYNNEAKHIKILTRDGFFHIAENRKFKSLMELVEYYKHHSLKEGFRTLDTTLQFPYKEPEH
Sequence of SLA (Homo sapiens) (Q13239 79-180): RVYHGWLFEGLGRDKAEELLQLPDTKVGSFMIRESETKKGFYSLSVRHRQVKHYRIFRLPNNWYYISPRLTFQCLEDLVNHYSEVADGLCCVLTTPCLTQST
Sequence of GRB7 (Homo sapiens) (Q14451 426-532): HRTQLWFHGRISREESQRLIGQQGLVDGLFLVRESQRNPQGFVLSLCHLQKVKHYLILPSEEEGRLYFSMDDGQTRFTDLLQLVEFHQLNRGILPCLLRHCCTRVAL
Sequence of VAV1 (Homo sapiens) (P15498 666-770): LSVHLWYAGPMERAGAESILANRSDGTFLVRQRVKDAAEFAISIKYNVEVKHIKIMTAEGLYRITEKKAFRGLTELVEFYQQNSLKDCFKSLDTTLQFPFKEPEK
Sequence of PIK3R2-NC (Homo sapiens) (O00459 325-721): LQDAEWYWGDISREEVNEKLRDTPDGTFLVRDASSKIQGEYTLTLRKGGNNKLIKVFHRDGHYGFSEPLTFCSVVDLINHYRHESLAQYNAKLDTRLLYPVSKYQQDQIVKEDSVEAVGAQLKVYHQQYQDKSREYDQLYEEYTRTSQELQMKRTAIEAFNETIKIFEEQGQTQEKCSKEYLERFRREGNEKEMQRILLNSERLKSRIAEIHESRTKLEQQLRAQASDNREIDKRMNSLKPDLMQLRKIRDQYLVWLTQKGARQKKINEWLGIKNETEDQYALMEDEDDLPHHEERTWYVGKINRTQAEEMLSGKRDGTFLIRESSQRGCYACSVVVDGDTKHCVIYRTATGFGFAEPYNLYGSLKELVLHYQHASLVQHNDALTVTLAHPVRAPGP
Sequence of PIK3R2-N (Homo sapiens) (O00459 325-721): as above
Sequence of RASA1-C (Homo sapiens) (P20936 176-446): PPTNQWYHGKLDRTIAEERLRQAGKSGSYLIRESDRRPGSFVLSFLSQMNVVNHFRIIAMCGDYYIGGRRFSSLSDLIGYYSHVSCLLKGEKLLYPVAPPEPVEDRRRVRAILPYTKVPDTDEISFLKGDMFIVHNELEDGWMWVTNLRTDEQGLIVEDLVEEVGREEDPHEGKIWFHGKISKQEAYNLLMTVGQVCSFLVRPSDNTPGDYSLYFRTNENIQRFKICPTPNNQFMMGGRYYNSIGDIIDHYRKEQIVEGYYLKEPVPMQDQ
Sequence of SUPT6H (Homo sapiens) (Q7KZ85 1320-1436): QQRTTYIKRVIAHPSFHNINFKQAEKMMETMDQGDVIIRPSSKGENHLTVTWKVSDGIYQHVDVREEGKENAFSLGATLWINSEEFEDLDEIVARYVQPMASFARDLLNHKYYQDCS
Sequence of SH2D3A (Homo sapiens) (Q9BRG2 10-119): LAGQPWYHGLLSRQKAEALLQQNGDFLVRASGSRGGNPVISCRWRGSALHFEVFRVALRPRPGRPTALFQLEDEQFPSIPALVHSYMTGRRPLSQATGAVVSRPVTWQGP
Sequence of SHC1-PTB (Homo sapiens) (P29353 483-583): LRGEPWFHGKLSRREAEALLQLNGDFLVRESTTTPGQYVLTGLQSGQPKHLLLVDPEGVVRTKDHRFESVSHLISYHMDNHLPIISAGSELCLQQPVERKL
Sequence of PIK3R1-N (Homo sapiens) (P27986 328-723): as the sequence (P27986 328-723) above
Sequence of PIK3R1-NC (Homo sapiens) (P27986 328-723): as above
Sequence of DAPP1 (Homo sapiens) (Q9UN19 30-134): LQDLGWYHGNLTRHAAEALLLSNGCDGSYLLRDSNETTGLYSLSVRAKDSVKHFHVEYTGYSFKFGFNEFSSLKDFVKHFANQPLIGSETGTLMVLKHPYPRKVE
Sequence of SH2D1A (Homo sapiens) (O60880 1-109): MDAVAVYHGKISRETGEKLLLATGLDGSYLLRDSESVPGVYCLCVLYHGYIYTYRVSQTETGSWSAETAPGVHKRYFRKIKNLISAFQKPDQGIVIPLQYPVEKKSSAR
Sequence of SH2D1B (Homo sapiens) (O14796 1-106): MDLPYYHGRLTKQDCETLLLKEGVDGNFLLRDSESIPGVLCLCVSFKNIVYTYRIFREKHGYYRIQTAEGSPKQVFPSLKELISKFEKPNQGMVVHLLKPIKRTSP
Sequence of SHC2-PTB (Homo sapiens) (P98077 482-582): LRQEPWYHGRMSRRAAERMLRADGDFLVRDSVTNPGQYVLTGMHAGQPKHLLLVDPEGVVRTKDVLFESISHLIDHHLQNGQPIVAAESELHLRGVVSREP
Sequence of SHF (Homo sapiens) (Q7M4L6 318-423): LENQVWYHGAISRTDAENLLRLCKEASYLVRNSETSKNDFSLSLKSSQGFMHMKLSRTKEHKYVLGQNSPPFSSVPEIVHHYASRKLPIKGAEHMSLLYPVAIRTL
Sequence of SHD (Homo sapiens) (Q96IW2 235-340): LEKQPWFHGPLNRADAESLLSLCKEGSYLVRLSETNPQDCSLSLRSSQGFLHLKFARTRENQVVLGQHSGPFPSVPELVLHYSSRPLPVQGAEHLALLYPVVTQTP
Sequence of BMX (Homo sapiens) (P51813 291-397): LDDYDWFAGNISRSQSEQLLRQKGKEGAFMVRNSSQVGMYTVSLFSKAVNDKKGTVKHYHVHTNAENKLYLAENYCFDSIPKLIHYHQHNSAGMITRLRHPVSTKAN

For …pYLVPQQGF, which apparent Kd (screen) [1] is on record?
The apparent Kd (screen) was 2 µM.

What about the apparent Kd (screen) [2] of the same substance?
The apparent Kd (screen) was 2 µM.

What about the apparent Kd (screen) [3] of the same substance?
The apparent Kd (screen) was 2 µM.

What about the apparent Kd (screen) [4] of the same substance?
Its apparent Kd (screen) is 2 µM.

And the apparent Kd (screen) [5]?
Its apparent Kd (screen) is 1.46 µM.

What about the apparent Kd (screen) [6] of the same substance?
The apparent Kd (screen) was 2 µM.

Which apparent Kd (screen) [7] does the source give for …pYLIPQQGFd here?
Its apparent Kd (screen) is 0.873 µM.

And the apparent Kd (screen) [8]?
Its apparent Kd (screen) is 0.47 µM.

What about the apparent Kd (screen) [9] of the same substance?
Its apparent Kd (screen) is 2 µM.

What about the apparent Kd (screen) [10] of the same substance?
The apparent Kd (screen) was 0.646 µM.

What about the apparent Kd (screen) [11] of the same substance?
Its apparent Kd (screen) is 0.193 µM.

And the apparent Kd (screen) [12]?
Its apparent Kd (screen) is 2 µM.

What about the apparent Kd (screen) [13] of the same substance?
Its apparent Kd (screen) is 0.216 µM.

And the apparent Kd (screen) [14]?
Its apparent Kd (screen) is 0.352 µM.

Which apparent Kd (screen) [15] does the source give for …pYEEMRAFQ here?
The apparent Kd (screen) was 0.049 µM.

What about the apparent Kd (screen) [16] of the same substance?
Its apparent Kd (screen) is 0.321 µM.

And the apparent Kd (screen) [17]?
The apparent Kd (screen) was 0.499 µM.

Which results are given for …pYWDQDPPE?
apparent Kd (screen) [18]: 0.456 µM; apparent Kd (screen) [19]: 2 µM; apparent Kd (screen) [20]: 1.12 µM; apparent Kd (screen) [21]: 2 µM; apparent Kd (screen) [22]: 2 µM; apparent Kd (screen) [23]: 2 µM; apparent Kd (screen) [24]: 1.84 µM; apparent Kd (screen) [25]: 2 µM; apparent Kd (screen) [26]: 2 µM; apparent Kd (screen) [27]: 2 µM; apparent Kd (screen) [28]: 2 µM; apparent Kd (screen) [29]: 0.088 µM; apparent Kd (screen) [30]: 2 µM
